Experimental data: article PMC8669613
Where two headings read alike, the source gives them in different places.

Columns and labels:
[1] = molecular target: HA-mCherry-tagged SdhA (Legionella pneumophila); test: co-IP
[2] = molecular target: His-tagged ASH/RhoGAP domain of OCRL (536aa-901aa) (human) (UniProt Q01968); test: ELISA
[3] = molecular target: His-tagged ASH/RhoGAP domain of OCRL (536aa-901aa) (human) (UniProt Q01968); test: ELISA; remark: listed apart in the source
[4] = molecular target: His-tagged ASH/RhoGAP domain of OCRL (536aa-901aa) (human) (UniProt Q01968); test: ELISA; remark: listed apart in the source

Chain of His-tagged ASH/RhoGAP domain of OCRL (536aa-901aa) (human) (Q01968 536-901): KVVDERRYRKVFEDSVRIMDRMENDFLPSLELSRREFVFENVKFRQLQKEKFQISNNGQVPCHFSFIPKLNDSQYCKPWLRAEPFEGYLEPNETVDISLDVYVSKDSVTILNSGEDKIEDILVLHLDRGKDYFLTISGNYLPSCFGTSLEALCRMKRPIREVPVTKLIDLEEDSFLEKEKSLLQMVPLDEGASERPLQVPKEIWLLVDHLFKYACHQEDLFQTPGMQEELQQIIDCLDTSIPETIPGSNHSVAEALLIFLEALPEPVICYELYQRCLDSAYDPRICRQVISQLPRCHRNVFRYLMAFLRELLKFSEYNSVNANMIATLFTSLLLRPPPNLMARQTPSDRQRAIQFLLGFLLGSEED
Chain of AP complex beta subunit (P63010 whole entry, one chain of several): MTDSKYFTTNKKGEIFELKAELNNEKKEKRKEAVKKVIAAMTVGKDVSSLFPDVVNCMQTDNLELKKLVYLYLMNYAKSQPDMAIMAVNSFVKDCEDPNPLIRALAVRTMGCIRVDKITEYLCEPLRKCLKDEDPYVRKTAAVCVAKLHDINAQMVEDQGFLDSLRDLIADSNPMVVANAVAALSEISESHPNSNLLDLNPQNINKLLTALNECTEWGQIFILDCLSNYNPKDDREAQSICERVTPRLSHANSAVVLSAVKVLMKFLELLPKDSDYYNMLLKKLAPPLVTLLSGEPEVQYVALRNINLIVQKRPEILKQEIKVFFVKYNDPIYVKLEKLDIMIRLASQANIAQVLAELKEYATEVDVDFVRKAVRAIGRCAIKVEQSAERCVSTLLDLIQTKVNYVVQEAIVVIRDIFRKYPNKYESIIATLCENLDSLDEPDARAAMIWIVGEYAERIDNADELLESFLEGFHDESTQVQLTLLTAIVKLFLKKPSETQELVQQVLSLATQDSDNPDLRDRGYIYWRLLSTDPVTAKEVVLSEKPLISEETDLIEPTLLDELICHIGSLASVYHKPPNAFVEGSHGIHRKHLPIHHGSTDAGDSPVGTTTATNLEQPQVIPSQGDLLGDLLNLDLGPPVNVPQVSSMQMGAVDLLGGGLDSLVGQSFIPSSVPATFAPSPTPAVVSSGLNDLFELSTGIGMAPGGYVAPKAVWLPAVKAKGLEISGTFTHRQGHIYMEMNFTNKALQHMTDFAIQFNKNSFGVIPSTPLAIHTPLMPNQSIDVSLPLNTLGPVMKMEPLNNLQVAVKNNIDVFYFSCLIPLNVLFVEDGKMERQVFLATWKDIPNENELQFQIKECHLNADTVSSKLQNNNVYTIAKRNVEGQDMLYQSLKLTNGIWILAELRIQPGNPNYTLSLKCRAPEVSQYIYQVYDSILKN
Chain of GFP-tagged, full-length OCRL (Q01968 whole entry): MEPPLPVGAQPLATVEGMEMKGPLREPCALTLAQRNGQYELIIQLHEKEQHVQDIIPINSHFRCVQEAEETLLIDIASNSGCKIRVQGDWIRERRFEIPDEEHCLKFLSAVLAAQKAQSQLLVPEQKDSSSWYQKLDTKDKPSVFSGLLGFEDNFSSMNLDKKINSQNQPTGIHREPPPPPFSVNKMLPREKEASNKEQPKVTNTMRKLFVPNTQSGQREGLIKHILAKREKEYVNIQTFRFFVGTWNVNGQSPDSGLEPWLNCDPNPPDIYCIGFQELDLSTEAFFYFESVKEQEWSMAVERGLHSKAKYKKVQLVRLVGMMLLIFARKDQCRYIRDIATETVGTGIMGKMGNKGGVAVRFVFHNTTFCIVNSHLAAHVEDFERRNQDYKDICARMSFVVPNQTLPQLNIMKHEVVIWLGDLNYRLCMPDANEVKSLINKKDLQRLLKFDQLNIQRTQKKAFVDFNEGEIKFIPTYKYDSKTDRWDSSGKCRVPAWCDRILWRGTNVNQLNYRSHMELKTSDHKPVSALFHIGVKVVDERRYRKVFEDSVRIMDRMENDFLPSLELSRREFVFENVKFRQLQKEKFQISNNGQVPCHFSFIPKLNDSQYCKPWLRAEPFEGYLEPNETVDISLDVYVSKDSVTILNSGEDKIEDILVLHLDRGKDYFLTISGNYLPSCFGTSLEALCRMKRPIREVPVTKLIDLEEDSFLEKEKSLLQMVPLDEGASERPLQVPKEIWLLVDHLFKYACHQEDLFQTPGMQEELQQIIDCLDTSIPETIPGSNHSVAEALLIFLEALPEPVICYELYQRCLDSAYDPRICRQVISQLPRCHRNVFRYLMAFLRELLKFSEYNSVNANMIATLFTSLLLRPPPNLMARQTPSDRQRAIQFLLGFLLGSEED

| Substance | fold co-precipitation above the HA-mCherry control [1] [fold] | EC50 [2] [nM] | EC50 [3] [nM] | EC50 [4] [nM] |
| --- | --- | --- | --- | --- |
| AP complex beta subunit (from UniProt P63010 1-937) (natural protein) | 29.5 | – | – | – |
| GFP-tagged, full-length OCRL (from UniProt Q01968 1-901) (natural protein) | 27.5 | – | – | – |
| GST-SdhA-CBM2 (1029-1260aa) (from UniProt Q6RCQ3 1029-1260) (domain or fragment) | – | 87.4 | 80.7 | – |
| GST-SdhA-CBM2A (1029-1080aa) (from UniProt Q6RCQ3 1029-1080) (domain or fragment) | – | – | 27.2 | 8.1 |
